Assay results: patent US20220056125A1 (CEPHALON, published 2022)
Positions count from the first letter of the chain named. “And” between values parts separate entries of the source, which are not always exact repeats. Equal entries are not always repeated.

T1: human PAR-2 (human, UniProt P55085 26-397)
T1 sequence: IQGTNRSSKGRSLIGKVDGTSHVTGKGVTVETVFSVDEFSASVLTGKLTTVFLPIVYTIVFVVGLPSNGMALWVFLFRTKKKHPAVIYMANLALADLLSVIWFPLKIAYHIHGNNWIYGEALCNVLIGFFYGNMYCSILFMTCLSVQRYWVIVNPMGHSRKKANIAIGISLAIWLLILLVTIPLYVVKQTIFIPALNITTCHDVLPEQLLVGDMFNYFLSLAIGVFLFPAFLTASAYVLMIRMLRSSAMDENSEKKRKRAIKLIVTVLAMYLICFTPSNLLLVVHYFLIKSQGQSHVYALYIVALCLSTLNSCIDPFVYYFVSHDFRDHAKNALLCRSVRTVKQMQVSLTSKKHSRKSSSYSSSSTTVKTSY

T2: human PAR-1 (human, UniProt P25116 22-425)
T2 construct: also called huPAR-1
T2 sequence: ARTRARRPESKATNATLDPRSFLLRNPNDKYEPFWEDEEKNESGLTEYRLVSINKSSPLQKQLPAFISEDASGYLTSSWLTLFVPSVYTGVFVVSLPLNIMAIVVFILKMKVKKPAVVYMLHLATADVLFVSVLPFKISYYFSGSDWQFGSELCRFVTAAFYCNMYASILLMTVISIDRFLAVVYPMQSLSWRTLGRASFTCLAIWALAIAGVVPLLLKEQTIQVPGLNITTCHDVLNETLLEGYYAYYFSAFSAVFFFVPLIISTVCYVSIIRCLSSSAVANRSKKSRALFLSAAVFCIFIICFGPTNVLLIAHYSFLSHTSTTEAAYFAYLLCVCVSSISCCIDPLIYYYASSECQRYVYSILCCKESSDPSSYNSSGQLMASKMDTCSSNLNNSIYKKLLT

B1: Ab86 (antibody, human IgG4, V domains shown)
VH: EVQLVESGGGLVQPKGSLKLSCAASGFTFNTYAMHWVRQAPGKGLEWVARIRSKNVHYATYYADSVKDRFTISRDDSQNMLYLQMNNLKTEDTAMYYCVREDYYGSSYDYWGQGTTLTVSS
VL: DIVMTQSHKFMSTSLGDRVSITCKASQDVGSAVAWHQQKPGQSPKVLIYWASNRHTGVPDRFTGSGSGTDFTLTISNVQSEDLADYFCQQYSSYPFTFGSGTKLEIK
notes: also called Anti-PAR-2 antibody # 86
B2: Ab84 (antibody, human IgG4, V domains shown)
VH: B1 VH with V5I, T31S, N79S, Y97F
VL: B1 VL with L15V, V46L, A51T, S65R, G66R, S93T
notes: also called Anti-PAR-2 antibody # 84
B3: Ab87 (antibody, human IgG4, V domains shown)
VH: B1 VH with N30Y, T31S, K43R
VL: B1 VL with L15V, G30R, V46L
notes: also called Anti-PAR-2 antibody # 87
B4: Ab1 (antibody, human IgG4, V domains shown)
VH: EVQLVEFGGGLVQPKGSLKLSCAASGFTFNTNAMHWVRQAPGKGLEWVARIGSKSSYFATYYADSVKDRFTISRDDSRSMFYLQMNNLKTEDTAMYYCVREDYYGSSFDLWGQGTTLTVSS
VL: QIVLSQSPAILSASPGEKVTMTCRASSSLPYIHWYQQKPGSSPRPWIYATSNLASGVPARFSGRGSGTSYSLTISRMEAEDAATYYCQQWSSTPPTFGGGSKLEIK
notes: also called Anti-PAR-2 antibody # 1
B5: Ab114 (antibody, human IgG4, V domains shown)
VH: QVQLQQSGPELVKPGASVKISCKTSGFTFTSYYIHWVKQRPGQGLEWIGWIYPGSGNTYYNERFKGKATLTADTSSSTASMQLSSLTSEDSAVYYCANGPLFYGSSYWYFDVWGTGTTVTVSS
VL: DVQITQSPSYLAASPGETITINCRASKSISRYLAWYQEKPGKTNKLLIYSGSTLQSGVPSRFSGSGFGTDFTLTISSLEPEDFAMYYCQQHNKYPLTFGAGTKLELK
notes: also called Anti-PAR-2 antibody # 114
B6: Ab343 (antibody, human IgG4, V domains shown)
VH: EVQLVESGGGLVQPGRSLKLSCVASGFTFNNYWMSWIRQAPGKGLEWVASITNTGGRIFYPDSVKGRFTISRDNAQNTLYLQMNSLRSEDAATYYCTRDRLYYGSNWFTYWGQGTLVTVSS
VL: DIQMTQSPHSLSASLGETVSIECLASEAISNYLAWYQQKPGKSPQLLIYYASSLKDGVPSRISGSGSGTQYSLKISNMQPEDEGVYYCQQGYKYPRTFGGGTKLELK
notes: also called Anti-PAR-2 antibody # 343
B7: Ab392 (antibody, human IgG4, V domains shown)
VH: EVQLVESGGGLVQPGRSLKLSCVASGFTFNNKWMTWIRQAPGKGLEWIASITNTGGRTFYPDSVKGRFTISRDDAKSTLYLQMNSLRSEDTATYYCTRATIRRGASYFDYWGQGVMVTVSS
VL: B6 VL with T18G, A28G, Y36F, K55Q, I62F, R96W
notes: also called Anti-PAR-2 antibody # 392
B8: Ab348 (antibody, human IgG4, V domains shown)
VH: QVQLKESGPGLVQPSQTLSLTCSVSGFSLSSYGVIWVRQPPGKGLEWMGVVWGNGNTAYNFTLKSRLTISRDTSKSQVFLKMNNLQTEDTAMYFCGRWRGFKDYPFDYWGQGVMVTVSS
VL: DIQMTQSPSFLSASVGDRVTINCKASQNIYKYLDWYQQKLGEAPKLLIYNTNSLHTGIPSRFSGSGSGTDFTLTISSLQPEDVATYFCLQHNSGWTFGGGTKLELK
notes: also called Anti-PAR-2 antibody # 348
B9: Ab360 (antibody, human IgG4, V domains shown)
VH: EVQLVESGGGLVQPGRSLKLSCVASGFTFNNYWMTWIRQAPGKGLEWVASITNTGGSTYYPDSVKGRFTISRDNAKSTLYLQMNSLRSEDTATYYCTREGIRGTGWFAYWGQGTLVTVSS
VL: DTVLTQSPALAVSPGERVTISCRASESVRTRMHWYQQRPGQQPKLLIYGASNPESGVPARFSGSGSGTDFTLTIDPVEADDSATYFCHQSWNEYTFGAGTKLELK
notes: also called Anti-PAR-2 antibody # 360
B10: 309-6i (antibody, human IgG4 S228P, kappa, V domains shown)
VH: EVQLVESGGGLVQPGGSLRLSCAASGFSLNSYGVIWVRQAPGKGLEWVSVIWGNGNTYYNDSVKGRFTISRDNSKNTLYLQMNSLRAEDTAVYYCARWRGYKDYPFDYWGQGTLVTVSS
VL: DIQMTQSPSSLSASVGDRVTITCKASQNIYKYLDWYQQKPGKAPKRLIYNTNSLHTGVPSRFSGSGSGTEFTLTISSLQPEDFATYYCLQHNSGWTFGGGTKVEIKR
B11: 309-11e (antibody, human IgG4 S228P, kappa, V domains shown)
VH: QVQLQESGPGLVKPSETLSLTCTVSGFSLNSYGVIWIRQPPGKGLEWIGVIWGNGNTYYNPSLKSRVTISVDTSKNQFSLKLSSVTAADTAVYYCARWRGYKDYPFDYWGQGTLVTVSS
VL: EIVLTQSPATLSLSPGERATLSCKASQNIYKYLDWYQQKPGQAPRLLIYNTNSLHTGIPARFSGSGSGRDFTLTISSLEPEDFAVYYCLQHNSGWTFGGGTKVEIKR
B12: 309-12e (antibody, human IgG4 S228P, kappa, V domains shown)
VH: B11 VH with E6Q, S7W, P9A, V12L, T23A, S25Y
VL: B11 VL
B13: 309-4e (antibody, human IgG4 S228P, kappa, V domains shown)
VH: QVQLVQSGAEVKKPGSSVKVSCKASGFSLNSYGVIWVRQAPGQGLEWMGVIWGNGNTYYNQKFQGRVTITADESTSTAYMELSSLRSEDTAVYYCARWRGYKDYPFDYWGQGTLVTVSS
VL: B11 VL
B14: 309-6e (antibody, human IgG4 S228P, kappa, V domains shown)
VH: B10 VH
VL: B11 VL
B15: P24E976 (antibody, human IgG4 S228P, kappa, V domains shown)
VH: B13 VH with N30S, G33A, V34I, I35S, G55Q, T57V, N60A, R99K
VL: B11 VL with K24R, I29V, Y32W, T51A, N52Y, L54R, H55A, L89Q, N92H
B16: P24E1103 (antibody, human IgG4 S228P, kappa, V domains shown)
VH: B13 VH with N30S, G33A, V34I, I35S, G55Q, T57V, N60A, R99K
VL: B11 VL with K24R, I29V, Y32W, T51A, S53N, L54R, H55A, L89Q, N92H
B17: P24E1099 (antibody, human IgG4 S228P, kappa, V domains shown)
VH: B13 VH with N30S, G33A, V34I, I35S, G55Q, T57V, N60A, R99K
VL: B11 VL with K24R, I29V, Y32W, T51A, L54R, H55A, L89Q, N92H

What follows are binders tested against T1, human PAR-2 (assay: cell-based or functional assay).

IC50, PAR-2 β-arrestin cell assay [nM] | Binder
9.9 | B1
6 | B2
5.6 | B3
8.4 | B4
36.7 | B5
18.2 | B6
13.7 | B7
2.7 | B8
16 | B9

Biological target: T1, human PAR-2
Assay: cell-based or functional assay
Remark: another data set of the same source

IC50, PAR-2 calcium flux assay (trypsin EC80) [nM] | Binder
50.5 | B4

Biological target: T1, human PAR-2
Assay: cell-based or functional assay
Remark: another data set of the same source

PAR-2 β-arrestin cell assay IC50, 1 µM SLIGKV [nM] | PAR-2 calcium flux cell assay IC50 [nM] | Binder
40.6 |  | B10
6.1 | 22.8 | B11
2.3 | 8.3 | B12
5.8 | 7.6 | B13
5.6 | 12.7 | B14

Biological target: T1, human PAR-2
Assay: cell-based or functional assay
Remark: another data set of the same source

PAR-2 β-arrestin cell based assay IC50, 2 µM SLIGKV | Binder
0.9 nM and 1.26 nM | B15
1.54 nM | B16
1.37 nM | B17
2.1 nM and 5.9 nM | B13

Biological target: T1, human PAR-2
Assay: cell-based or functional assay
Remark: another data set of the same source

Calcium flux IC50 | IL-6 release in A549 cells IC50 [nM] | IL-8 release in A549 cells IC50 [nM] | Binder
15.9 nM and 15.3 nM and 7.1 nM and 5.9 nM | 5.63 | 4.25 | B15
12.7 nM | 7.18 | 5.17 | B16
12.3 nM | 6.74 | 4.89 | B17

Each binder was assayed against T2, human PAR-1 (assay: flow cytometry, transfected Expi293F cells).
Description: Paired heavy and light chains encoded by these sequence pairs were expressed as a full length human IgG4 isotype antibodies and assessed for PAR-2 binding and selectivity by flow cytometry. […] Cells were used for flow cytometric analysis 36-48 hours post-transfection. Use of Nt-PAR-2 as a target allowed antibodies which bound the N-terminal residues of PAR-2 (which comprise the protease-cleavage sites on PAR-2) to be distinguished from antibodies which bound other extracellular sites on PAR-2, such as the PAR-2-activating ligand-binding site(s). Expi293F cells, transiently expressing one of each of the different target proteins were labelled with different intensities of a single fluorphor Encoder dye (Intellicyt) for 10 mins at either 1 in 250 dilution for high intensity and/or 1 in 1500 dilution for moderate intensity, enabling simultaneous analysis of multiple cell populations. After washing the cells were then mixed in an equal ratio with the unlabeled cell type and analyzed for antibody binding.
The cells were plated in 96 well plates at 2×10⁵ cells/well. Following a wash step using Phosphate buffered saline (PBS), the primary antibody (anti-PAR-2 antibody) was added at a concentration of 10 μg/mL in 50 μL of FACS buffer (0.5% w/v BSA in PBS) to each well and incubated for 10-15 mins. Following a wash step, secondary antibody (anti-human Fc-FITC) was added to the wells at 1:200 dilution in 50 μL for 10-15 mins. Following a washing step, the cells were re-suspended in fluorescence-activated cell sorting (FACS) buffer. The flow cytometry analysis was performed on an Intellicyt iQue screener. Gates were drawn around the different intensities of encoder dye-positive cells and these populations were analyzed separately from each other and the unlabeled cells for binding by the primary antibody.

binding result | Binder
no binding (tested: 10 µg/mL) | B1
no binding (tested: 10 µg/mL) | B2
no binding (tested: 10 µg/mL) | B3
no binding (tested: 10 µg/mL) | B4
no binding (tested: 10 µg/mL) | B5
no binding (tested: 10 µg/mL) | B6
no binding (tested: 10 µg/mL) | B7
no binding (tested: 10 µg/mL) | B8
no binding (tested: 10 µg/mL) | B9
